Values quoted from earlier work as cited in patent US20050096266A1, “Preparation and method for weight reduction” (priority 2002, published 2005).

Test system: trypsin
Conditions: trypsin secreted into the duodenum by the pancreas; per one weight unit of inhibitor

B1: soybean trypsin inhibitor: Commercial proteinous trypsin inhibitor (Type Il-S, Sigma Chemical Co.) that binds trypsin, forming inactive complexes (protein, UniProt P01070 25-205, looked up)
Trypsin inhibitor A: DFVLDNEGNPLENGGTYYILSDITAFGGIRAAPTGNERCPLTVVQSRNELDKGIGTIISSPYRIRFIAEGHPLSLKFDSFAVIMLCVGIPTEWSVVEDLPEGPAVKIGENKDAMDGWFRLERVSDDEFNNYKLVFCPQQAEDDKCGDIGISIDHDDGTRRLVVSKNKPLVVQFQKLDKESL
weight units of trypsin inactivated by one weight unit of the inhibitor: 2.5 weight units
